Measured values reported in US20220090012A1 (CRISPR THERAPEUTICS, published 2022).

Target: T1, recombinant biotinylated human BCMA (human, UniProt Q02223 1-54, biotinylated (site not stated); detected with streptavidin-APC)
T1 construct: Staining reagent; also called recombinant biotinylated BCMA/streptavidin-APC conjugate
T1 sequence (looked up): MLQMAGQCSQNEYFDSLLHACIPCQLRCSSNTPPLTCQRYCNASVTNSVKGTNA
Assay: flow cytometry; edited T cells carrying the CAR stained with recombinant biotinylated human BCMA and streptavidin-APC
Description: Flowcytometry was used to verify the editing for TRAC, β2M and the insertion and expression of anti-BCMA CAR. Briefly, about one week post electroporation, cells were stained with anti-human TCR, anti-human β2M and recombinant biotinylated human BCMA/streptavidin-APC to assess the levels of editing for TRAC and β2M, and insertion of the nucleotide sequence encoding anti-BCMA CAR.
TRAC−/β2M−, TRAC−/β2M−/Reg-1−, TRAC−/β2M−/TGFBRII− and TRAC−/β2M−/Reg-1−/TGFBRII− anti-BCMA CAR+ T-cells show consistent rates of TCR and β2M disruptions at >90% and >60% rates, respectively as determined by flow cytometry (FIGS. 23A and 23B). Anti-BCMA CAR expression was measured flow cytometrically by determining the percentage of cells that bound recombinant biotinylated BCMA/streptavidin-APC conjugate. All the conditions including TRAC−/β2M−, TRAC−/β2M−/Reg-1−, TRAC−/β2M−/TGFBRII− and TRAC−/β2M−/Reg-1−/TGFBRII− anti-BCMA CAR+ T-cells show consistent rates of CAR insertion (>70%), while the unedited RNP− T-cells have no detectable staining for anti-BCMA CAR (FIG. 23C).

- binding result: binds
B1: anti-BCMA CAR (BCMA CAR amino acid sequence) (other)
chain: QVQLVQSGAELKKPGASVKVSCKASGNTLTNYVIHWVRQAPGQRLEWMGYILPYNDLTKYSQKFQGRVTITRDKSASTAYMELSSLRSEDTAVYYCTRWDWDGFFDPWGQGTTVTVSSGGGGSGGGGSGGGGSEIVMTQSPATLSVSPGERASISCRASQSLVHSNGNTHLHWYQQRPGQAPRLLIYSVSNRFSEVPARFSGSGSGTDFTLTISSVESEDFAVYYCSQTSHIPYTFGGGTKLEIKSAAAFVPVFLPAKPTTTPAPRPPTPAPTIASQPLSLRPEACRPAAGGAVHTRGLDFACDIYIWAPLAGTCGVLLLSLVITLYCNHRNRKRGRKKLLYIFKQPFMRPVQTTQEEDGCSCRFPEEEEGGCELRVKFSRSADAPAYQQGQNQLYNELNLGRREEYDVLDKRRGRDPEMGGKPRRKNPQEGLYNELQKDKMAEAYSEIGMKGERRRGKGHDGLYQGLSTATKDTYDALHMQALPPR
notes: also called anti-BCMA chimeric antigen receptor
